Results on one substance are retold here after US20180360749A1, “METHODS AND COMPOSITIONS FOR DELIVERY OF MEDICAMENTS TO THE LUNGS” (Paka Pulmonary Pharmaceuticals, priority 2007, published 2018).

Experiment [1] deals with T1, HNE (Homo sapiens, UniProt P08246).
T1 sequence (P08246 30-267): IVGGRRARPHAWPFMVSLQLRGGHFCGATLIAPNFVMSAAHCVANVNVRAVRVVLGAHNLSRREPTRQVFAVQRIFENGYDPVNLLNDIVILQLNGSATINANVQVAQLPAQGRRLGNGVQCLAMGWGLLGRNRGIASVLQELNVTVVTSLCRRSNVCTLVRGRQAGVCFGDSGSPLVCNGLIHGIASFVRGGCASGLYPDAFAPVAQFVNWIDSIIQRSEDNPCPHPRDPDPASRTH
The experiment can be described thus: Bronchoalveolar lavage of the lungs following HNE exposure (lung blood cell level). The class given is in vivo. Particulars: mice. On the procedure: A total of 14 animals were used in this study. Anesthetized mice received 0.1 ml of solution delivered by a blunt tip catheter to the opening of the trachea and the animals allowed to aspirate the solution into their lungs. All animals were exposed to the treatment for 2 hours and re-anesthetized. Bronchoalveolar lavage of the lungs was performed as described below. […] Target 2 (a potent HNE inhibitor developed by Zeneca in the early 1990s) when given with the HNE, reduced the average blood level in the lungs by 34% to 0.035 grams. Target C (the Zeneca molecule covalently attached to the N-terminus of the first 25 residues of the human surfactant B peptide) when given with the HNE reduced the average blood level in the lungs by 87% to 0.007 grams.
A set of animals was used to determine the optimal concentration of HNE for the study. […] The amount of HNE was reduced to 40 micrograms to maintain a maximal detrimental but survivable effect. The animals exposed to 40 micrograms of HNE were able to survive long enough to perform the complete study. All animals remaining in the complete study were exposed to 40 micrograms of HNE.
Target 2 (the Zeneca molecule) was given in a 70-fold molar excess relative to HNE. In the kinetic studies, Target 2 has 2 nM affinity. […] Accordingly, the Target C was given to the animals in a 100 fold molar excess relative to HNE in these studies.
Bronchio-Alveolar lavage (BAL) is performed by 1) anesthetizing the animals; 2) performing a tracheotomy on the animals and cutting open the chest and spreading the ribs to enable full lung expansion; 3) pressurizing lml of PBS buffer solution into the lungs through the tracheotomy catheter; 4) sucking the solution out of the lungs; 5) centrifuging the recovered solution to separate the red blood cell fraction from the liquid fraction; and 6) weighing the red blood cell fraction.

The target of experiment [2] is T1, HNE. The experiment can be described thus: Kinetic studies of affinity for HNE. The class given is biochemical.
Where [3] appears, read: given with 40 micrograms HNE via trachea, 2 hours exposure, weight of BAL red blood cell fraction, Target 2 70-fold, Target C 100 fold molar excess relative to HNE.

A word on the Ki: it is the equilibrium dissociation constant of an inhibitor or competing ligand from its target. A high value points to a looser hold on the target. Turning to “Target C: the Zeneca molecule covalently attached to the N-terminus of the first 25 residues of the human surfactant B peptide (FPIPLPYCWLCRALIKRIQAMIPKG)”, in the experiment with HNE [1] (setting [3]), the “Lung Blood Cell Level Measurements, Mouse group 1” value came out at 0 g; the “Lung Blood Cell Level Measurements, Mouse group 2” value stood at 0.007 g; the “Lung Blood Cell Level Measurements, Mouse group 3” value was determined as 0.014 g. In the experiment with HNE [1] (given with 40 micrograms HNE, 2 hours exposure, mean of the mouse groups), the “Lung Blood Cell Level Measurements, Group mean” value came to 0.007 g. In addition, the “average blood level in the lungs (lung blood cell level by weight)” value in the experiment with HNE [1] (given with the HNE, 2 hours exposure) worked out at 0.007 grams. For the same substance, in the experiment with HNE [1] (given with the HNE, relative to animals given HNE (0.053 grams)), the “reduction of the average blood level in the lungs” value was 87%. For the same substance, in the experiment with HNE [2], the Ki is approximately 200 nM and the “loss of potency as compared to Target 2” value is listed as “approximately two orders of magnitude”.
